Results reported in US9144594B2, “Cathepsin L mediated diseases and associated methods and products” (University of Miami, priority 2005, dated 2015).

Legend:
cathepsin L = experiment: Generation of dynamin p40 fragment in LPS-treated cultured podocytes (Western blot); type: cell-based, mouse; conditions: podocytes expressing the variant, LPS-treated
Text: Next, it was examined whether cathepsin L could process dynamin in vivo, and whether this processing required GTP binding by dynamin. To this end, cultured podocytes were infected with adenoviruses expressing dynWT as well as different dynamin mutants. Infected podocytes were subsequently treated with LPS. LPS treatment increases cathepsin L presence and the activity in the cytosol (FIG. 3), and thus is expected to induce generation of the 40 kD proteolytic fragment. Respective cytosols were probed using the GTPase antibodies in order to detect N-terminal 40 kD proteolytic fragment. Expression of dynWT in podocytes treated with LPS identified proteolytic fragments that traveled with the same mobility as fragments observed in vitro. […] Furthermore, significant amount of p40 was present in cells expressing dynR725A prior to LPS treatment. […] Given complete protection of cathepsin L cleavage by GTPγS, it was reasoned that LPS treatment was somehow inducing dynR725A self-assembly, which in turn was protecting dynR725A from cathepsin L cleavage. This in turn would explain ability of dynR725A to counteract LPS and PAN treatment (FIG. 1D). […] Biochemical difference between dynWT, dynK694A and dynR725A is that only dynR725A is impaired in the rate of GTP-hydrolysis of assembled dynamin. This is important because GTP-hydrolysis drives disassemble of dynamin. Thus, while all three dynamins are predicted to self-assemble by LPS treatment, only dynR725A will stay assembled due to its inability to hydrolyze GTP. Once assembled dynWT and dynK694A hydrolyze GTP they will fall apart and thus become accessible for cathepsin L cleavage.
To explore CatL-mediated dynamin cleavage in vivo, cultured podocytes were infected with adenoviruses encoding different dynamin mutants and subsequently treated with LPS (FIG. 19G). […] To confirm the identity of the cleavage site, the ELSGGA (SEQ ID NO.29) sequence was mutated to EQSVGA (SEQ ID NO.31) (for simplicity, the mutant is subsequently referred to as dynL356Q). […] Finally, a GTPase-defective dynamin mutant was examined. Dynamin carrying a mutation in its […] (dynR725A) oligomerizes, but is impaired in assembly-stimulated GTP-hydrolysis. DynR725A is therefore predicted to live longer in the assembled state.
Podocytes were grown under non-permissive conditions to 70% confluence. Cells were washed twice with 1×PBS and infected with 1.2 ml of serum-free DMEM media containing 100 μl transactivator virus, 100 μl virus expressing dyn1 or dyn2. After 2 h of infection at 37° C., media containing virus was replaced with full DMEM. If cells were treated with LPS or PAN, 50 μg/ml of LPS or 50 μg/ml PAN was added at this point. 18-24 h post-infection, cells were detached using trypsin and processed either for subcellular fractionation or tested in the motility assays as described in (Reiser et al., J Biol Chem 279, 34827-34832 (2004)). When stated, 20 μM of Z-FF-FMK CatL specific inhibitor (Calbiochem, San Diego, Calif.) was added simultaneously with addition of LPS.

podocytes = experiment: Rhodamine-transferrin uptake (endocytosis) in podocytes; type: cell-based, mouse; conditions: overexpression in podocytes
Experimental: Since dynamin is known to play a major role in regulation of clathrin-mediated endocytosis, it appeared possible that the observed actin phenotypes as described above were indirect consequence of changes in endocytosis. […] While LPS treatment of cells overexpressing dynWT had no effect on endocytosis of rhodamine-transferrin (FIG. 1D), it did induce cell motility and changes in actin cytoskeleton.
Conditionally immortalized mouse podocyte cell lines were grown as described previously (Mundel et al., Exp Cell Res 236; 248-258; (1997)). Dynamin antibodies: Anti-dynamin (hudy 1) monoclonal antibody was purchased from Upstate Technology (Lake Placid, N.Y.); mouse anti-dyn1 monoclonal antibody (MAB 5402) was from Chemicon (Temecula, Calif.); mouse anti-dyn1 monoclonal antibody (VAM-SVO41) was from StressGene (Victoria, Canada). The rabbit antiserum against mouse CatL was used as described (Ishidoh and Kominami, 1994). For immunogold and immunocytochemistry analysis of CatL, we used a rabbit polyclonal antibody against CatL as described before (Ahn et al., Traffic 3, 147-159 (2002)). CatL −/− fibroblasts were maintained as described previously (Hsieh et al., J Immunol 168, 2618-2625 (2002)). Stable CatL knock-down cell lines were generated with a vector-based siRNA directed against CatL (target sequence 5′-GTGGACTGTTCTCACGCT-3; SEQ ID NO.32). Quantitative PCR was performed on a Applied Biosystems 7300 Real-Time PCR System. Fold-expression changes were calculated using the comparative CT method for relative quantitation with the equation 2^−ΔΔCT. Protein expression levels for dynamin and CatL were calculated using densitometric analysis with Kodak imaging software. Statistical significance was assessed with the unpaired t-test with Welch's correction. Transfections with CatL constructs were performed using Lipofectamine 2000 (Invitrogen) following manufacturer's instructions. Immunocytochemical analysis of cultured podocytes was done as described (Reiser et al., J Biol Chem 279, 34827-34832 (2004)). Immunoperoxidase labeling of human tissue was done on formalin fixed kidney biopsies embedded in paraffin. Transmission electron microscopy (TEM) and immunoelectron microscopy (IEM) were performed as described (Regele et al., J Am Soc Nephrol 11, 403-412 (2000)). Subcellular fractionation of cultured cells was performed as described (Damke et al., J Cell Biol 127, 915-934 (1994)). Internalization of rhodamine-transferrin (R-Tfn) was performed using 20 μg/ml R-Tfn in PBS containing 1 mM CaCl2, 1 mM MgCl2, 5 mM glucose, and 0.2% BSA for 10 min at 37° C.

podocyte FP = experiment: Podocyte foot process architecture by electron microscopy after gene delivery; type: in vivo, mouse; conditions: gene delivery into wildtype mice
Text: Next it was explored whether gene delivery of dynamin mutants dynR725A and dynL356Q, G358V into mice can be expressed in podocytes and if this procedure can affect podocyte FP architecture and function. First, we needed to establish a safe and reliable detection system of transferred gene expression in podocytes. Therefore we analyzed which dynamin isoforms are expressed in podocytes by RT-PCR. Podocytes express mainly dynamin 2 and little dynamin 3 but no dynamin 1 (FIG. 5A). Gene-transfer CMV promotor driven dynamin 1 constructs were used because neuronal dynamin protein is normally not expressed in podocytes and could be easily tracked by a specific monoclonal dynamin 1 antibody (FIG. 5B). […] Monoclonal dynamin antibodies MAB 5402 […] were used, which predominantly recognize dynamin 1 (FIG. 5B). Labeling of glomerular sections with MAB 5402 detected some minimal background labeling of dynamin, representing endogenous dynamin 2 (FIG. 5C). The gene transfer of dynamin 1 expression vectors led to a strong expression of dynamin 1 in glomerular cells including podocytes (FIG. 5D). Some of this labeling was also detected in podocytes, which are marked positively by synaptopodin staining, resulting in a yellow staining pattern (FIG. 5E).

Sequence of cathepsin L (P06797 114-333 limits assumed): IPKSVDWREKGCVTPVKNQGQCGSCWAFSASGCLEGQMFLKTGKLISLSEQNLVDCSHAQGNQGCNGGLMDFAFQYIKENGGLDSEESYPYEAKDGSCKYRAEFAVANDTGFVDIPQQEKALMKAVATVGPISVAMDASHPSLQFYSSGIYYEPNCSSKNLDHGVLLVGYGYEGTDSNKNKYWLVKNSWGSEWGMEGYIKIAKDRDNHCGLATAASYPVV

Row | Molecule | p40 generation from dynamin variant, in words (cathepsin L) | transferrin uptake (endocytosis), in words (podocytes) | podocyte FP architecture, in words (podocyte FP)
1 | dynWT: wild type dynamin overexpressed by adenovirus or delivered as dynamin 1 cDNA | resulted in generation of p40 | did not enhance the overall transferring uptake | did not result in changes of podocyte FP architecture
2 | dynK44A: dominant-negative dynamin mutant that cannot bind GTP (protein, UniProt Q05193 1-864, looked up, variant K44A) Dynamin-1: MGNRGMEDLIPLVNRLQDAFSAIGQNADLDLPQIAVVGGQSAGASSVLENFVGRDFLPRGSGIVTRRPLVLQLVNATTEYAEFLHCKGKKFTDFEEVRLEIEAETDRVTGTNKGISPVPINLRVYSPHVLNLTLVDLPGMTKVPVGDQPPDIEFQIRDMLMQFVTKENCLILAVSPANSDLANSDALKVAKEVDPQGQRTIGVITKLDLMDEGTDARDVLENKLLPLRRGYIGVVNRSQKDIDGKKDITAALAAERKFFLSHPSYRHLADRMGTPYLQKVLNQQLTNHIRDTLPGLRNKLQSQLLSIEKEVEEYKNFRPDDPARKTKALLQMVQQFAVDFEKRIEGSGDQIDTYELSGGARINRIFHERFPFELVKMEFDEKELRREISYAIKNIHGIRTGLFTPDMAFETIVKKQVKKIREPCLKCVDMVISELISTVRQCTKKLQQYPRLREEMERIVTTHIREREGRTKEQVMLLIDIELAYMNTNHEDFIGFANAQQRSNQMNKKKTSGNQDEILVIRKGWLTINNIGIMKGGSKEYWFVLTAENLSWYKDDEEKEKKYMLSVDNLKLRDVEKGFMSSKHIFALFNTEQRNVYKDYRQLELACETQEEVDSWKASFLRAGVYPERVGDKEKASETEENGSDSFMHSMDPQLERQVETIRNLVDSYMAIVNKTVRDLMPKTIMHLMINNTKEFIFSELLANLYSCGDQNTLMEESAEQAQRRDEMLRMYHALKEALSIIGDINTTTVSTPMPPPVDDSWLQVQSVPAGRRSPTSSPTPQRRAPAVPPARPGSRGPAPGPPPAGSALGGAPPVPSRPGASPDPFGPPPQVPSRPNRAPPGVPSRSGQASPSRPESPRPPFDL | did not result in detectable levels of p40 | completely inhibited transferring uptake | induced a severe rearrangement of the actin based podocyte FPs
3 | dynL356Q, G358V: dynamin mutant (SEQ ID NO.3) not recognized by cathepsin L; ELSGGA mutated to EQSVGA (protein, listed as Homo sapiens) MGNRGMEDLIPLVNRLQDAFSAIGQNADLDLPQIAVVGGQSAGKSSVLENFVGRDFLPRGSGIVTRRPLVLQLVNATTEYAEFLHCKGKKFTDFEEVRLEIEAETDRVTGTNKGISPVPINLRVYSPHVLNLTLVDLPGMTKVPVGDQPPDIEFQIRDMLMQFVTKENCLILAVSPANSDLANSDALKVAKEVDPQGQRTIGVITKLDLMDEGTDARDVLENKLLPLRRGYIGVVNRSQKDIDGKKDITAALAAERKFFLSHPSYRHLADRMGTPYLQKVLNQQLTNHIRDTLPGLRNKLQSQLLSIEKEVEEYKNFRPDDPARKTKALLQMVQQFAVDFEKRIEGSGDQIDTYEQSVGARINRIFHERFPFELVKMEFDEKELRREISYAIKNIHGIRTGLFTPDMAFETIVKKQVKKIREPCLKCVDMVISELISTVRQCTKKLQQYPRLREEMERIVTTHIREREGRTKEQVMLLIDIELAYMNTNHEDFIGFANAQQRSNQMNKKKTSGNQDEILVIRKGWLTINNIGIMKGGSKEYWFVLTAENLSWYKDDEEKEKKYMLSVDNLKLRDVEKGFMSSKHIFALFNTEQRNVYKDYRQLELACETQEEVDSWKASFLRAGVYPERVGDKEKASETEENGSDSFMHSMDPQLERQVETIRNLVDSYMAIVNKTVRDLMPKTIMHLMINNTKEFIFSELLANLYSCGDQNTLMEESAEQAQRRDEMLRMYHALKEALSIIGDINTTTVSTPMPPPVDDSWLQVQSVPAGRRSPTSSPTPQRRAPAVPPARPGSRGPAPGPPPAGSALGGAPPVPSRPGASPDPFGPPPQVPSRPNRAPPGVPSRSGQASPSRPESPRPPFDL | yielded no p40 |  | did not show any significant changes in podocyte FP structure
4 | dynK694A: dominant activator dynamin mutant impaired in self-assembly (protein) MGNRGMEDLIPLVNRLQDAFSAIGQNADLDLPQIAVVGGQSAGKSSVLENFVGRDFLPRGSGIVTRRPLVLQLVNATTEYAEFLHCKGKKFTDFEEVRLEIEAETDRVTGTNKGISPVPINLRVYSPHVLNLTLVDLPGMTKVPVGDQPPDIEFQIRDMLMQFVTKENCLILAVSPANSDLANSDALKVAKEVDPQGQRTIGVITKLDLMDEGTDARDVLENKLLPLRRGYIGVVNRSQKDIDGKKDITAALAAERKFFLSHPSYRHLADRMGTPYLQKVLNQQLTNHIRDTLPGLRNKLQSQLLSIEKEVEEYKNFRPDDPARKTKALLQMVQQFAVDFEKRIEGSGDQIDTYELSGGARINRIFHERFPFELVKMEFDEKELRREISYAIKNIHGIRTGLFTPDMAFETIVKKQVKKIREPCLKCVDMVISELISTVRQCTKKLQQYPRLREEMERIVTTHIREREGRTKEQVMLLIDIELAYMNTNHEDFIGFANAQQRSNQMNKKKTSGNQDEILVIRKGWLTINNIGIMKGGSKEYWFVLTAENLSWYKDDEEKEKKYMLSVDNLKLRDVEKGFMSSKHIFALFNTEQRNVYKDYRQLELACETQEEVDSWKASFLRAGVYPERVGDKEKASETEENGSDSFMHSMDPQLERQVETIRNLVDSYMAIVNKTVRDLMPKTIMHLMINNTAEFIFSELLANLYSCGDQNTLMEESAEQAQRRDEMLRMYHALKEALSIIGDINTTTVSTPMPPPVDDSWLQVQSVPAGRRSPTSSPTPQRRAPAVPPARPGSRGPAPGPPPAGSALGGAPPVPSRPGASPDPFGPPPQVPSRPNRAPPGVPSRSGQASPSRPESPRPPFDL |  | lead to increase in transferring uptake | 
